Laboratory results: patent US20250042994A1 (HAINAN SIMCERE ZAIMING PHARMACEUTICAL, published 2025)
Changes are numbered by the printed parent chain. Each block holds one binder with its values, some of them ahead of it.

What was measured:
[1] = target: T1, human CD19 exon1-3-His tag protein (human, UniProt P15391 20-186, limits assumed); test: ELISA on coated human CD19 exon 1-3-His
T1 construct: membrane-distal part of the extracellular region, made in HEK293E cells; not shown: His tag
T1 sequence (looked up): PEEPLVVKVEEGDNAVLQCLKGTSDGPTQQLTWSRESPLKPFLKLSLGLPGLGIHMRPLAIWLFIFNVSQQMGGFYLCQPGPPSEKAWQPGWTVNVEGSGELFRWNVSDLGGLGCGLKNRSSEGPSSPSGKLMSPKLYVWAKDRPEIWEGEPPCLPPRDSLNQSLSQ
Description: Human CD19-his protein (purchased from ACROBiosystems, catalog number: CD9-H52H2) was diluted with PBS to a final concentration of 4 μg/mL, and then added to a 96-well ELISA plate at 100 μl/well. The plate was sealed with a plastic film and incubated overnight at 4° C., the plate was washed 2 times with PBS the next day, and then a blocking solution [PBS+2% (w/w) BSA] was added for blocking at room temperature for 2 h. The blocking solution was poured off, and 100 nM gradiently diluted CD19 chimeric antibody or control antibody was added at 50 μl/well. After incubation at 37° C. for 2 h, the plate was washed 3 times with PBS. […] TMB substrate was added at 50 μl/well, and incubated at room temperature for 10 min, and then a stop solution (1.0 N HCl) was added at 50 μl/well. The OD450 nm values were read by an ELISA microplate reader (Multimode Plate Reader, EnSight, purchased from Perkin Elmer).
CD19 protein contains 4 exons in the extracellular region, in which exons 1-3 are located at the membrane-distal end and exon 4 is located at the membrane-proximal end. […] To identify the distribution of antigen binding epitopes of the chimeric antibodies, human CD19 exon 1-3-His (membrane-distal end) was used to coat at 2 μg/mL according to the ELISA method in example 5.1.

Human CD19-his protein = target: T2, Human CD19-his protein (human, UniProt P15391 20-291); test: SPR Biacore, Ab captured on Protein A, CD19-His analyte
T2 construct: bought protein; also called recombinant human CD19-His; CD19 full-length protein; not shown: His tag
T2 sequence (looked up): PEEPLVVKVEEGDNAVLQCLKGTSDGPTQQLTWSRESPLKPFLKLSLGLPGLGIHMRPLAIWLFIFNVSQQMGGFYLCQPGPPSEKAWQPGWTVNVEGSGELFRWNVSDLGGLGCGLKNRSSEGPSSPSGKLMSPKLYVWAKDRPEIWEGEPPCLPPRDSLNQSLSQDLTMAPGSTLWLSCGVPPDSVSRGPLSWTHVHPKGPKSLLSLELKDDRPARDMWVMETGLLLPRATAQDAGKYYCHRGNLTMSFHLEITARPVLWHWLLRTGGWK
Description: A sample buffer and a running buffer were HBS-EP+ (10 mM HEPES, 150 mM NaCl, 3 mM EDTA and 0.05% surfactant P20) (GE Healthcare; BR-1006-69). The flow-through cell was set to 25° C. The sample block was set to 16° C. Both were pretreated with the running buffer. In each cycle, an antibody to be detected was first captured with a Protein A chip, and then a single concentration of CD19 antigen protein was injected. The binding and dissociation processes of the antibody and the antigen protein were recorded, and finally Glycine pH 1.5 (GE Healthcare; BR-1003-54) was used to complete chip regeneration. The binding was measured by injecting different concentrations of recombinant human CD19-His proteins in a solution for 240 s with a flow rate of 30 μl/min. The concentration started from 200 nM (see the detailed results for the actual concentration in the test) and was diluted at 1:1, making a total of 5 concentrations. The dissociation phase was monitored for up to 600 s and was triggered by switching from sample solution to running buffer. The surface was regenerated by washing with a 10 mM glycine solution (pH 1.5) for 30 s at a flow rate of 30 μl/min. Bulk refractive index difference was corrected by subtracting the response obtained from the goat anti-human Fc surface. Blank injection was also subtracted (=double reference). For calculation of apparent KD and other kinetic parameters, Langmuir 1:1 model was used.

B1: F3.114.12 (antibody, human IgG1, V domains shown)
VH: DVQLQESGPGLVKPSQSLSLTCSVTGYSITSGYDWNWIRQFPGNKLEWMGYISYDGKNNYNPSLRNRISITRDTSKNQFFLKLNSVTTEDTATYYCARRDLRGYFDVWGTGTTVTVSS
VL: DIVLTQSPATLSVTPGDRVSLSCRASQSISNYLHWYQQKSHESPRLLIKYASLSISGIPSRFSGSGSGTDFTLSINSVETEDFGVYFCQQSNSWPLTFGAGTKLELK
notes: human-murine chimeric antibody, human IgG1 constant
- binding result [1]: no binding (tested: 100 nM)
- Kd (Human CD19-his protein): 6.03 nM
- koff (Human CD19-his protein): 0.000465 s⁻¹
- kon (Human CD19-his protein): 77000 M⁻¹ s⁻¹

B3: F3.74.4 (antibody, human IgG1, V domains shown)
VH: QVQLQQSGAELVRPGASVTLSCKASGYTFTDYEMHWVKQTPVHGLEWIGGIAPETGLTTYNQKFEDKAILTADKSSRTAYMELRSLTSEDSAVYFCNPNNYGLWGTGTTVTVSS
VL: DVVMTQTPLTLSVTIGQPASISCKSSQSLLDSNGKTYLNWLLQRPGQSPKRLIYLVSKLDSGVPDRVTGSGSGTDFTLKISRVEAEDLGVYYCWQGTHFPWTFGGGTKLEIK
notes: as for B1
- EC50 (read off the curve) [1]: ~0.3 nM
- Kd (Human CD19-his protein): 18.7 nM
- koff (Human CD19-his protein): 0.000879 s⁻¹
- kon (Human CD19-his protein): 47100 M⁻¹ s⁻¹

B6: F5.10.6 (antibody, human IgG1, V domains shown)
VH: DVQLQESGPGLVKPSQSLSLTCSVTDYSITSGYYWTWIRQFPGNKLEWMGYISYDGSTNYNPSLKNRFSITRDTSKNQFFLKLNSVIIEDTATYYCARDRMSTTWYFDVWGTGTTVTVSS
VL: DIVLTQSPASLAVSLGQRATISCRASESVDNYGISFMHWYQQKPGQPPKLLIYRASKTESGIPARFSGSGSRTDFTLTINPVETDDVATYYCQQSNKYPRTFGGGTKVEIK
notes: as for B1
- binding result [1]: no binding (tested: 100 nM)
- Kd (Human CD19-his protein): 1.84 nM
- koff (Human CD19-his protein): 0.000151 s⁻¹
- kon (Human CD19-his protein): 82100 M⁻¹ s⁻¹

B10: F1-mab003 (antibody, human IgG1, V domains shown)
VH: EVQLQQSGPELVKPGASVKMSCKASGYTFTDYVMHWVRQTPGQGLEWIGYFNPYNDGTNYNEKFKVKATLTSDKSSTTAYMELSSLTSEDSAVYYCARGVYYYGRDFDYWGQGTTLTVSS
VL: DVVLTQTPLSLPVSLGDQASISCRSSQSLENSNGNSYLNWYLQKPGQSPQLLIYRVSNRFSGVLDRFSGSGSGTDFTLKISRVEAEDLGVYFCLQITHVPWTFGGGTKLEIK
notes: as for B1
- binding result [1]: no binding (tested: 100 nM)
- Kd (Human CD19-his protein): 0.247 nM
- koff (Human CD19-his protein): 0.000111 s⁻¹
- kon (Human CD19-his protein): 450000 M⁻¹ s⁻¹

B11: F4.276.12 (antibody, human IgG1, V domains shown)
VH: EIQLQQSGPELVKPGASVKVSCKASGYAFSAYNMYWVKQSHGKSLEWIGYIDPYNGGTNYNQKFKGKATLTVDKSSSTAYMHLNSLTSEDSAVYYCARDGYEVTYWGQGTLVTVSA
VL: QIVLTQSPALMSASLGEEITLTCSASSSVTYMHWSQQKSGTSPRLLIYSTSNLASGVPSRFSGSGSGTFYSLTISSVEAEDAADYYCHQWSSYPWTFGGGTKLEIK
notes: as for B1
- binding result [1]: no binding (tested: 100 nM)
- Kd (Human CD19-his protein): 3.33 nM
- koff (Human CD19-his protein): 0.00081 s⁻¹
- kon (Human CD19-his protein): 243000 M⁻¹ s⁻¹

B13: F2.15.26 (antibody, human IgG1, V domains shown)
VH: QVQLKESGPGLVAPSQSLSITCTVSGFSLTDYGVSWIRQSPGKGLEWLGVIWGSGDTYYNSVLESRLSINKDNSKNQVFLKMNSLQTDDAAMYFCAKHSYYGGSFAMDYWGQGTSVTVSS
VL: DIQMTQTTSSLSASLGDRVTISCRASQDISNYLNWYQQKPDGTVKLLIYYTSRLHSGVPSRFSGSGSGTDYSLTISNLEQEDIATYFCQQGKTLPWTFGGGTKLEIK
notes: as for B1
- binding result [1]: no binding (tested: 100 nM)
- Kd (Human CD19-his protein): 0.839 nM
- koff (Human CD19-his protein): 0.000229 s⁻¹
- kon (Human CD19-his protein): 273000 M⁻¹ s⁻¹

B14: F3.3.10 (antibody, human IgG1, V domains shown)
VH: DVQLQESGPGLAKLSQSLSLTCSVTGYSITSGYYWNWIRQFPGNKLEWMGHISYDGNNNYNPSLKNRISITRDTSKNQFFLKLNSVTTEDTATYYCARENYSNYYFDYWGQGTTLTVSS
VL: DIVLTQSPASLAVSLGQRATISCRASQSVSKSSYTYIHWYQQKPGQPPKLLIKYASILQSGVPARFSGSGSGTDFTLNFHPVEEEDTATYYCQHSWEIPYTFGGGTKLEIK
notes: as for B1
- binding result [1]: no binding (tested: 100 nM)
- Kd (Human CD19-his protein): 8.47 nM
- koff (Human CD19-his protein): 0.000621 s⁻¹
- kon (Human CD19-his protein): 73400 M⁻¹ s⁻¹

The remaining lines, values ahead:

- binding result [1]: no binding (tested: 100 nM)
- Kd (Human CD19-his protein): 21.7 nM
- koff (Human CD19-his protein): 0.0033 s⁻¹
- kon (Human CD19-his protein): 152000 M⁻¹ s⁻¹
B2: F6.2.9 (antibody, human IgG1, V domains shown)
VH: QVQLQQSGAELVKPGASVKISCKASGYAFSSYWMNWVKQRPGKGLEWIGQIYPGDGDTNYNGKFKGKATLTADKSSSTGYMQLSSLTSEDSAVYFCARSRITSVVDWYFDVWGTGTTVTVSS
VL: QIVLSQSPAILSASPGEKVTMTCRASSSVSYMHWYQQKPGSSPKPWIYATSNLASGVPARFSGSGSGTSYSLTISRVEAEDAATYYCQQWSSNPPTFGAGTKLELK
notes: as for B1

- EC50 (read off the curve) [1]: ~0.2 nM
- Kd (Human CD19-his protein): 5.32 nM
- koff (Human CD19-his protein): 0.00119 s⁻¹
- kon (Human CD19-his protein): 224000 M⁻¹ s⁻¹
B4: F3.148.10 (antibody, human IgG1, V domains shown)
VH: EVQLQQSGAELVRPGSSVTMSCKTSGYTFTNYGINWVKQRPGQGLEWIGYIFIGNDYTEYNEKFKGKATLTSDTSSSTAYMQLSSLTSEDSAIYFCTRFYSNYYGMDPWGQGTSVTVSS
VL: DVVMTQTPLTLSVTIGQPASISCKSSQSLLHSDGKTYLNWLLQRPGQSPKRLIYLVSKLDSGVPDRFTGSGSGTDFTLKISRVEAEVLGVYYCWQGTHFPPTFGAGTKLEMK
notes: as for B1

- EC50 (read off the curve) [1]: ~0.1 nM
- Kd (Human CD19-his protein): 5.67 nM
- koff (Human CD19-his protein): 0.00108 s⁻¹
- kon (Human CD19-his protein): 190000 M⁻¹ s⁻¹
B5: F3.109.1 (antibody, human IgG1, V domains shown)
VH: B4 VH with T19K, N31S, F52Y, Y60F, T97A, Y103S, Y104D, G105P, P108Y, Q111H
VL: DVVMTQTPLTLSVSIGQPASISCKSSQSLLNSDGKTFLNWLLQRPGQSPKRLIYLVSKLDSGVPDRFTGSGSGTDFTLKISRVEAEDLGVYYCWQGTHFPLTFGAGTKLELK
notes: as for B1

- binding result [1]: no binding (tested: 100 nM)
- Kd (Human CD19-his protein): 5.28 nM
- koff (Human CD19-his protein): 0.00187 s⁻¹
- kon (Human CD19-his protein): 355000 M⁻¹ s⁻¹
B7: F6.5.20 (antibody, human IgG1, V domains shown)
VH: QVQLQQPGAELVKPGASVKLSCKASGYTFTSYWMQWVKQRPGQGLEWIGEIDPSDSYTNYNQKFKGKASLTVDTSSSTAYMQLSSLTSEDSAVYYCARWGLLRNYYVMDYWGQGTSVTVSS
VL: EIVLTQSPTTMAASPGEKITITCSASSSISSNYLHWYQQKPGFSPKLLIYRTSNLASGVPARFSGSGSGTSYSLTIGTMEAEDVATYYCQQGSSIPRMLTFGAGTKLELK
notes: as for B1

- binding result [1]: no binding (tested: 100 nM)
- Kd (Human CD19-his protein): 0.543 nM
- koff (Human CD19-his protein): 8.47e-05 s⁻¹
- kon (Human CD19-his protein): 156000 M⁻¹ s⁻¹
B8: F3.5.1 (antibody, human IgG1, V domains shown)
VH: QAQLQQSGPELVKPGASVKISCKASGYAFSGSWMNWVQQRPGKGLEWIGRIYPGDGDTYYNGKFKDKAILTADKSSSTAYMQLSSLTSEDSAVYFCAQLRYRYVMDYWGQGTSVTVSS
VL: DIVLTQSPASLAVSLGQRATISCRASESVSIHGSHLMHWYQQKPGQPPRLLIYAASNLESGVPARFSGSGSETDFTLNIHPVEEEDAATYFCQQGIKDPYTFGGGTKLEIK
notes: as for B1

- binding result [1]: no binding (tested: 100 nM)
- Kd (Human CD19-his protein): 1.46 nM
- koff (Human CD19-his protein): 0.000245 s⁻¹
- kon (Human CD19-his protein): 167000 M⁻¹ s⁻¹
B9: F6.12.12 (antibody, human IgG1, V domains shown)
VH: DVQLQESGPGLVKPSQSLSLTCSVTGYSITSGYYWIWIRQFPGNKLEWMGYISYDASNKYKPSLKNRISITRDTSKNQFFLKLNSVTAEDTATYFCAREDLRGYFDVWGTGTSVTVSS
VL: DIVLTQSPASLAVSLGRRATISCRASQSVSTSGFSYMHWYQQKPGQPPNLLIKYASILQSGVPARFSGSGSGTDFILNIHPVEDVDTATYYCQHSWGIPFTFGSGTKLEIK
notes: as for B1

- binding result [1]: no binding (tested: 100 nM)
- Kd (Human CD19-his protein): 0.294 nM
- koff (Human CD19-his protein): 6.51e-05 s⁻¹
- kon (Human CD19-his protein): 221000 M⁻¹ s⁻¹
B12: F4.272.13 (antibody, human IgG1, V domains shown)
VH: QVQLKESGPGLVAPSQSLSITCTVSGFSLTDYGVSWIRQPPGKGLEWLGVIWGSETTFYNSALKSRLSISKDNSKSQLFLQMNSLQADDTAIYYCAKHHYYGGSFSMDYWGQGTSVTVSS
VL: B13 VL with S30N, L46F, N77D, K92N, W96Y
notes: as for B1
